Results from patent US20260049151A1 (SHENGHE CHINA BIOPHARMACEUTICAL, published 2026).
Like-named read-outs stand apart in the source and are kept apart here.

B1: Antibody H (bispecific antibody, human IgG1, kappa)
light: QVQLQESGPGLVKPSETLSLTCTVSGSSLTSYGVHWVRQPPGKCLEGLGVIWPGGSTNYNSALMSRVTISKDNSKSQVSLKMSSLTAADTAVYYCARVTGTWYFDVWGQGTTVTVSSGGGGSGGGGSGGGGSDIQMTQSPSSLSASLGDRVTISCSASQGISNYLNWYQQKPDGTVKLLIYYTSTLHSGVPSRFSGSGSGTDYTLTISSLQPEDIATYYCQQYSKLPWTFGCGTKLEIKGGGGSGGGGSGGGGSDIVMTQSPATLSVSPGERATLSCKASQNVGSNVDWYQQKPGQSPRVLIYKASIRYTGIPARFSGSGSGTEFTLTISILQSEDFAVYFCMQSKSYPITFGQGTKLEIKRTVAAPSVFIFPPSDEQLKSGTASVVCLLNNFYPREAKVQWKVDNALQSGNSQESVTEQDSKDSTYSLSSTLTLSKADYEKHKVYACEVTHQGLSSPVTKSFNRGEC
heavy: not shown
notes: IgG1 subtype; full-length TNFR2 antibody with 4-1BB scFv at the N-terminus of the light chains
B2: Antibody E1 (bispecific antibody, human IgG1, kappa)
light: DIVMTQSPATLSVSPGERATLSCKASQNVGSNVDWYQQKPGQSPRVLIYKASIRYTGIPARFSGSGSGTEFTLTISILQSEDFAVYFCMQSKSYPITFGQGTKLEIKRTVAAPSVFIFPPSDEQLKSGTASVVCLLNNFYPREAKVQWKVDNALQSGNSQESVTEQDSKDSTYSLSSTLTLSKADYEKHKVYACEVTHQGLSSPVTKSFNRGEC
heavy: not shown
notes: IgG1 subtype; full-length TNFR2 antibody with 4-1BB scFv at the C-terminus of the heavy chains
B3: Antibody J1 (bispecific antibody, human IgG1, kappa)
light: DIQMTQSPSSLSASLGDRVTISCSASQGISNYLNWYQQKPDGTVKLLIYYTSTLHSGVPSRFSGSGSGTDYTLTISSLQPEDIATYYCQQYSKLPWTFGGGTKLEIKRTVAAPSVFIFPPSDEQLKSGTASVVCLLNNFYPREAKVQWKVDNALQSGNSQESVTEQDSKDSTYSLSSTLTLSKADYEKHKVYACEVTHQGLSSPVTKSFNRGEC
heavy: not shown
notes: IgG1 subtype; full-length 4-1BB antibody with TNFR2 VHH at the C-terminus of the heavy chains
B4: Antibody M1 (bispecific antibody, human IgG1, kappa)
light: B3 light
heavy: not shown
notes: IgG1 subtype; full-length 4-1BB antibody with TNFR2 VHH at the N-terminus of the heavy chains

Tests used:
[1] = target: T1, Human 4-1BB His (human, UniProt Q07011 24-186); test: ELISA: Human 4-1BB His coated (0.2 ug/mL), antibody titrated, goat anti-human IgG Fc detection (Example 3)
T1 construct: Bought protein; lots 198-2146F1-W6 and 2407c-214FF1-YC; also called human 4-1BB protein; 4-1BB protein; not shown: His tag
T1 sequence (Q07011 24-186 limits assumed): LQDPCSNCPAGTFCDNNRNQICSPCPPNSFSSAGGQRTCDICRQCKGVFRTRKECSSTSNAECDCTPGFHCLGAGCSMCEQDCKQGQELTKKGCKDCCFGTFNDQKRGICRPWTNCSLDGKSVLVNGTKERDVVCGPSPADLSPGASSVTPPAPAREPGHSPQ
Procedure: Human 4-1BB His (manufacturer: Acro, CAT: 41B-H5258, LOT: 198-2146F1-W6) was diluted to 0.2 μg/mL with a coating solution (1×PBS, pH7.4), and coated in 96-well ELISA plate at 100 μL/well overnight at 4° C. The coating solution was poured off. Each well was washed with 1×PBST at 300 μL, washed 4 times with a plate washer, and patted dry on a flat paper. It was blocked with 3% skim milk powder at 300 μL/well, and incubated at 37° C. for 1 h. The blocking solution was poured off, washed 4 times with a plate washer, and patted dry on a flat paper. Negative control and positive control were set up. […] The variable region of the antibody sequence of the positive control consists of SEQ ID NO: 15 and SEQ ID NO: 19, with the addition of the constant region of human IgG1 (SEQ ID NO: 46 and SEQ ID NO: 47). The positive control and antibody were diluted to 10 μg/mL with 3% skim milk powder as the starting concentration, and then diluted by 3-fold gradient (11 gradients in total), and a blank well was set up and only the diluent was added. It was incubated at 37° C. for 1 h at 100 μL/well. The liquid in the well was discarded, washed 4 times with a plate washer, and patted dry on a flat paper. Goat anti-human IgG Fc was diluted with 3% skim milk powder at 1:20000, and incubated at 37° C. for 1 h at 100 μL/well. It was washed 6 times with a plate washer, and patted dry on a flat paper. TMB color developing solution was added at 100 μL/well, and wrapped with aluminum foil. Color development was performed at 37° C. in the dark for 8 min. Termination solution 1M HCl was added to terminate the color development reaction at 100 μL/well. Readings were taken at 450 nm on an ELISA reader.

[2] = target: T2, Human TNFR2 mFc (human, UniProt P20333 23-257); test: bridging ELISA: Human TNFR2 mFc coated (0.3 ug/mL), antibody titrated, then Human 4-1BB His (0.3 ug/mL), HRP anti-His detection (Example 5)
T2 construct: Bought protein; not shown: mFc
T2 sequence (looked up): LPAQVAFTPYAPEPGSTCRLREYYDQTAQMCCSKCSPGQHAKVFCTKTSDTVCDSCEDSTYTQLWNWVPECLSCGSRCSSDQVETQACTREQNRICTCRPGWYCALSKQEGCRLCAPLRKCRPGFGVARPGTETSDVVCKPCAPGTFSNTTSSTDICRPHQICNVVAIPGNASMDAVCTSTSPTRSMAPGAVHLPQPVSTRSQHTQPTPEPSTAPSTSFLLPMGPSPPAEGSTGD

[3] = target: T3, Human-TNFR2-His (human, UniProt P20333 23-257); test: ELISA: Human-TNFR2-His coated (0.1 ug/mL), antibody titrated, goat anti-human IgG Fc detection (Example 2)
T3 construct: Bought protein; also called human TNFR2 protein; TNFR2 protein; not shown: His tag
T3 sequence (looked up): T2 sequence (looked up)

[4] = target: T3, Human-TNFR2-His; test: as above; remark: listed apart in the source
Procedure: Human-TNFR2-His (manufacturer: SINO, CAT: 10417-H08H, LOT: LC15NO0412) was diluted to 0.1 μg/mL with a coating solution (1×PBS, pH7.4), and coated in 96-well ELISA plate at 100 µL/well overnight at 4° C. The coating solution was poured off. Each well was washed with 1×PBST at 300 μL, washed 4 times with a plate washer, and patted dry on a flat paper. It was blocked with 3% skim milk powder at 300 μL/well, and incubated at 37° C. for 1 h. The blocking solution was poured off, washed 4 times with a plate washer, and patted dry on a flat paper. Negative control and positive control were set up. […] The positive control and antibody were diluted to 10 μg/mL with 3% skim milk powder as the starting concentration, and then diluted by 3-fold gradient (11 gradients in total), and a blank well was set up and only the diluent was added. It was incubated at 37° C. for 1 h at 100 μL/well. The liquid in the well was discarded, washed 4 times with a plate washer, and patted dry on a flat paper. Goat anti-human IgG Fc was diluted with 3% skim milk powder at 1:10000, and incubated at 37° C. for 1 h at 100 μL/well. It was washed 6 times with a plate washer, and patted dry on a flat paper. TMB color developing solution was added at 100 μL/well, and wrapped with aluminum foil. Color development was performed at 37° C. in the dark for 8 min. Termination solution 1M HCl was added to terminate the color development reaction at 100 μL/well. Readings were taken at 450 nm on an ELISA reader.

EC50 (read off the curve) [1] [nM] | EC50 (read off the curve) [2] [nM] | EC50 (read off the curve) [3] [nM] | EC50 (read off the curve) [4] [nM] | Binder
~0.06 | ~0.07 |  |  | B1
 | ~0.07 | ~0.09 |  | B2
~0.09 | ~0.07 | ~0.2 |  | B3
 | ~0.09 |  | ~0.04 | B4
